The values that follow come from the supplement of paper PMC10724198.

± gives the standard deviation of the averaged measurements.
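Note: PSI is a weighted mean of sequencing reads over stability bins, variants kept only with over 10 reads, mCherry proximal and sfGFP distal, peptide attached via GGGS linker.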

The test system of this data set is Saccharomyces cerevisiae. The data set is described as follows: protein stability index of tFT-peptide fusion (C-terminal peptide) (PSI (0-1 scale)); higher = more stable (slower turnover). The following applies: genetic background: wild type; temperature: 30 C.
As to LGFVADLFVWSV, the protein stability index was 0.673 ± 0.069. LGFVRLLFPSFS displayed a protein stability index of 0.758 ± 0.022. For LGFYGSYGRWWV the value was 0.779 ± 0.085; for LGGCGWVDWWGL, 0.732 ± 0.0096; for LGGGGGGGACGE, 0.655 ± 0.022. For LGGTGGFRGVRG the value was 0.691 ± 0.022; for LGHITLSERFGS, 0.705 ± 0.21; for LGKWWDEECGEI, 0.7834 ± 0.0042. For LGLGERLSINTF the value was 0.70035 ± 0.00022. Turning to LGLSFYPPLIIS, the protein stability index came to 0.559 ± 0.0094. With LGMCGTCQREVG the figure was 0.708 ± 0.027.

The sequence LGNFSLSARSYM came in with a protein stability index of 0.727 ± 0.028.

Consider LGNMRTVEGWGG, for which the protein stability index amounted to 0.684 ± 0.051. For LGPDSCRLPLAQ the value was 0.746 ± 0.067; for LGRKWDCLGRYV, 0.637 ± 0.06; for LGRPWRECIQIG, 0.66 ± 0.015. As to LGRTFEEEKYAY, the protein stability index stood at 0.767 ± 0.13. For LGSAAVPGLCRL the value was 0.853 ± 0.0092; for LGSCPPPPAPPP, 0.638 ± 0.037; for LGSCRCFAFVSL, 0.659 ± 0.023.

Sequence LGSFGLASVDGL had a protein stability index of 0.713 ± 0.02. With LGSITDRLLRRR the figure was 0.772 ± 0.14; with LGSTPAVKPPCL, 0.688 ± 0.019. In turn, LGSYSALKIGWG yielded a protein stability index of 0.592 ± 0.029. For LGTLLWGGAGRG the value was 0.713 ± 0.01; for LGVALARCLWGT, 0.677 ± 0.022; for LGVGFFLGFRTG, 0.6508 ± 0.0048.

LGVGGPSVREGE displayed a protein stability index of 0.706 ± 0.034. The sequence LGVGGRWGGPGA registered a protein stability index of 0.691 ± 0.059. With LGVRGSMGPGGG the figure was 0.683 ± 0.082; with LGVWVGGRGVRG, 0.747 ± 0.037; with LGWPWGGRGEGL, 0.606 ± 0.0069. With LGWRLFNDVRRG the figure was 0.707 ± 0.013; with LGYRCETNYVPD, 0.631 ± 0.023.

In turn, LHETKRQKKRKR showed a protein stability index of 0.7187 ± 0.0062. With LHLPFLPSLPHP the figure was 0.727 ± 0.042; with LHPPAPRSPPPR, 0.639 ± 0.041. In turn, LHPPLPRPPYPP displayed a protein stability index of 0.66 ± 0.029. For LHPRPPLLPSLP the value was 0.608 ± 0.07; for LHRFTYAEVVWA, 0.536 ± 0.031; for LHSFLLSVGRGF, 0.681 ± 0.015. For LIGRPLPRTFMH the value was 0.766 ± 0.074; for LIKATAYRTNRQ, 0.745 ± 0.044; for LIKVGRRREGTG, 0.691 ± 0.059.

Turning to LILFLTTSSPLV, the protein stability index was determined as 0.608 ± 0.017.

In the case of LILSSGSPAFKT, the protein stability index came out at 0.66 ± 0.039.

LIPTPPPHPPSP yielded a protein stability index of 0.679 ± 0.023. For LISGGLSWGDCW the value was 0.743 ± 0.0099; for LISNTGTKWAMI, 0.674 ± 0.053. For LISSTLRDQKDE the value was 0.701 ± 0.047.

As to LISVWQLDVRSG, the protein stability index was 0.579 ± 0.0023. Take LKALNKFEDTGN: the protein stability index is 0.668 ± 0.018. With LKAWQRRWEGVR the figure was 0.752 ± 0.026; with LKCGGVRCGSAN, 0.648 ± 0.061; with LKDEERYKRRKV, 0.709 ± 0.016. Regarding LKFCSTLLKFAS, the protein stability index is 0.564 ± 0.037. For LKLLIPPSFSLI the value was 0.611 ± 0.027; for LKMGAWAHTETW, 0.645 ± 0.033; for LKQNRIKCPWTL, 0.728 ± 0.017. For LKTNECIPVTEK the value was 0.609 ± 0.029. Sequence LLAHLVIWAPSR yielded a protein stability index of 0.634 ± 0.091.

In the case of LLANYQRPSPLN, the protein stability index worked out at 0.705 ± 0.063. For LLAPPLPAVPSF, the protein stability index was found to be 0.731 ± 0.006.

As to LLFGMRPMLFSF, the protein stability index was found to be 0.576 ± 0.038. For LLFLVHGLCFSS the value was 0.543 ± 0.028; for LLFPALPPPPVR, 0.674 ± 0.028; for LLFPCSVGLGVV, 0.686 ± 0.077. On to LLFRPTPCLPPL, for which the protein stability index was found to be 0.686 ± 0.022. With LLFRSPPPTVHS the figure was 0.769 ± 0.088; with LLFSNRKVGQQF, 0.708 ± 0.011; with LLGRPILINRPL, 0.661 ± 0.0083. With LLGSGTVSGCAG the figure was 0.642 ± 0.04; with LLHYPHVPLSPI, 0.662 ± 0.021.

As to LLICRLFLFTIW, the protein stability index was 0.555 ± 0.12. With LLIPPLPSLAPP the figure was 0.759 ± 0.052.

In the case of LLLFPLPLLPFH, the protein stability index is 0.686 ± 0.037. For LLLGLPLDVGDS the value was 0.708 ± 0.066; for LLLRSSPVSLSR, 0.7162 ± 0.0034. As to LLLTLVFSFLSC, the protein stability index is 0.531 ± 0.0088. For LLPLLPAPRPPF the value was 0.691 ± 0.0063.
